In this data set the test system is Escherichia coli TOP10. As to the kind of experiment: shrunken log2 fold change of peptide-encoding DNA abundance (4.5 h post-induction vs induction); higher = less antimicrobial activity (less host growth inhibition). The following applies: time post-induction: 4.5 h; library: site-saturation at positions 5, 18, 19, 20.
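Note: peptides expressed intracellularly from a pBAD plasmid library in pooled LB shake-flask culture, induced with 0.3% L-arabinose, DNA abundance read by NGS, three biological replicates, DESeq2 with apeglm shrinkage.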

Consider RRIRKRPPRLPRPRPRPRMPPRP, for which the “shrunken log2 fold change” value stood at 0.363.

In the case of RRIRFRPPRLPRPRPRPRAKPRP, the “shrunken log2 fold change” value amounted to 0.189.

Turning to RRIRARPPRLPRPRPRPVSLPRP, the “shrunken log2 fold change” value is -0.0174.

As for RRIRWRPPRLPRPRPRPVRQPRP, the “shrunken log2 fold change” value worked out at 0.161.

For the sequence RRIRWRPPRLPRPRPRPICHPRP, the “shrunken log2 fold change” value is -0.0597.

As to RRIRHRPPRLPRPRPRPMQSPRP, the “shrunken log2 fold change” value was -0.215.

With RRIRIRPPRLPRPRPRPVHFPRP, the “shrunken log2 fold change” value is -0.355.

With RRIRERPPRLPRPRPRPDAIPRP, the “shrunken log2 fold change” value is -0.166.

In the case of RRIRIRPPRLPRPRPRPFDNPRP, the “shrunken log2 fold change” value is -1.1.

As to RRIRPRPPRLPRPRPRPLKLPRP, the “shrunken log2 fold change” value was -0.267.

For the sequence RRIRTRPPRLPRPRPRPSSRPRP, the “shrunken log2 fold change” value was 0.543.

For the sequence RRIRERPPRLPRPRPRPGPFPRP, the “shrunken log2 fold change” value is -0.128.

In the case of RRIRQRPPRLPRPRPRPYTAPRP, the “shrunken log2 fold change” value was -0.219.

In the case of RRIRCRPPRLPRPRPRPTFIPRP, the “shrunken log2 fold change” value is -0.307.

Turning to RRIRGRPPRLPRPRPRPRTQPRP, the “shrunken log2 fold change” value came to 0.826.

For the sequence RRIRIRPPRLPRPRPRPTKCPRP, the “shrunken log2 fold change” value is -0.696.

Take RRIRCRPPRLPRPRPRPKKPPRP: the “shrunken log2 fold change” value is -0.0369.

On to RRIRVRPPRLPRPRPRPLNCPRP, for which the “shrunken log2 fold change” value was -0.257.

As to RRIRMRPPRLPRPRPRPGREPRP, the “shrunken log2 fold change” value came out at 1.02.

As for RRIRCRPPRLPRPRPRPLGHPRP, the “shrunken log2 fold change” value is -0.372.

For the sequence RRIRKRPPRLPRPRPRPGSCPRP, the “shrunken log2 fold change” value worked out at 0.346.

Turning to RRIRCRPPRLPRPRPRPTRGPRP, the “shrunken log2 fold change” value was found to be 0.807.

For the sequence RRIRPRPPRLPRPRPRPKNMPRP, the “shrunken log2 fold change” value is -0.436.

Turning to RRIRPRPPRLPRPRPRPLWGPRP, the “shrunken log2 fold change” value turned out to be 0.232.

Consider RRIRKRPPRLPRPRPRPSKIPRP, for which the “shrunken log2 fold change” value came to 0.154.

Turning to RRIRPRPPRLPRPRPRPVLQPRP, the “shrunken log2 fold change” value was 0.162.

Take RRIRNRPPRLPRPRPRPCTKPRP: the “shrunken log2 fold change” value is 0.00474.

Regarding RRIRMRPPRLPRPRPRPQIPPRP, the “shrunken log2 fold change” value is -0.127.

For RRIRTRPPRLPRPRPRPCYWPRP, the “shrunken log2 fold change” value is 0.0189.

Regarding RRIRHRPPRLPRPRPRPQDLPRP, the “shrunken log2 fold change” value is -0.0414.

As to RRIRARPPRLPRPRPRPWTEPRP, the “shrunken log2 fold change” value was -0.181.

As for RRIRHRPPRLPRPRPRPVAQPRP, the “shrunken log2 fold change” value was 0.0207.

For the sequence RRIRCRPPRLPRPRPRPVFLPRP, the “shrunken log2 fold change” value was -0.429.

With RRIRYRPPRLPRPRPRPGQFPRP, the “shrunken log2 fold change” value was -0.0455.

With RRIRTRPPRLPRPRPRPEPPPRP, the “shrunken log2 fold change” value is 0.395.

For the sequence RRIRERPPRLPRPRPRPEIAPRP, the “shrunken log2 fold change” value is -0.0389.

For RRIRTRPPRLPRPRPRPKEHPRP, the “shrunken log2 fold change” value is -0.174.

With RRIRCRPPRLPRPRPRPHWPPRP, the “shrunken log2 fold change” value was found to be 0.149.

Take RRIRGRPPRLPRPRPRPLTAPRP: the “shrunken log2 fold change” value was 0.998.

Regarding RRIRLRPPRLPRPRPRPAHMPRP, the “shrunken log2 fold change” value is -0.0737.

For the sequence RRIRRRPPRLPRPRPRPEGVPRP, the “shrunken log2 fold change” value was 0.874.

For RRIRGRPPRLPRPRPRPPTFPRP, the “shrunken log2 fold change” value came to 0.572.

As to RRIRCRPPRLPRPRPRPVKGPRP, the “shrunken log2 fold change” value was -0.261.

As to RRIRCRPPRLPRPRPRPRTCPRP, the “shrunken log2 fold change” value came out at 0.0191.

With RRIRIRPPRLPRPRPRPHCPPRP, the “shrunken log2 fold change” value is -0.102.

Turning to RRIRCRPPRLPRPRPRPFAFPRP, the “shrunken log2 fold change” value was -0.169.

With RRIRNRPPRLPRPRPRPARRPRP, the “shrunken log2 fold change” value was 0.294.

Turning to RRIRQRPPRLPRPRPRPVRHPRP, the “shrunken log2 fold change” value is -0.0023.

Turning to RRIRCRPPRLPRPRPRPNFPPRP, the “shrunken log2 fold change” value is 0.346.

For the sequence RRIRGRPPRLPRPRPRPHSKPRP, the “shrunken log2 fold change” value was found to be 0.205.

On to RRIRGRPPRLPRPRPRPCHGPRP, for which the “shrunken log2 fold change” value was -0.355.

Turning to RRIRWRPPRLPRPRPRPNPDPRP, the “shrunken log2 fold change” value came out at 0.167.

Regarding RRIRERPPRLPRPRPRPQQFPRP, the “shrunken log2 fold change” value is -0.0731.

For the sequence RRIRSRPPRLPRPRPRPPEIPRP, the “shrunken log2 fold change” value was -0.19.

Take RRIRMRPPRLPRPRPRPEYIPRP: the “shrunken log2 fold change” value was 0.0145.

Turning to RRIRDRPPRLPRPRPRPVVRPRP, the “shrunken log2 fold change” value was 0.155.

In the case of RRIRCRPPRLPRPRPRPWDMPRP, the “shrunken log2 fold change” value was -0.0934.

As for RRIRARPPRLPRPRPRPPQSPRP, the “shrunken log2 fold change” value stood at 0.993.

With RRIRIRPPRLPRPRPRPWDHPRP, the “shrunken log2 fold change” value is 0.0393.

With RRIRGRPPRLPRPRPRPIFSPRP, the “shrunken log2 fold change” value came out at 0.312.

As to RRIRARPPRLPRPRPRPSACPRP, the “shrunken log2 fold change” value came to 0.359.

RRIRSRPPRLPRPRPRPYEDPRP: the “shrunken log2 fold change” value was -0.129.

For RRIRERPPRLPRPRPRPETIPRP, the “shrunken log2 fold change” value is -0.0222.

For RRIRTRPPRLPRPRPRPEYWPRP, the “shrunken log2 fold change” value is -0.00483.

On to RRIRWRPPRLPRPRPRPKIWPRP, for which the “shrunken log2 fold change” value came out at 0.272.

As to RRIRKRPPRLPRPRPRPNPKPRP, the “shrunken log2 fold change” value was 0.143.

As to RRIRYRPPRLPRPRPRPLEKPRP, the “shrunken log2 fold change” value stood at 0.0601.

For RRIRGRPPRLPRPRPRPIVAPRP, the “shrunken log2 fold change” value stood at 0.727.

Turning to RRIRFRPPRLPRPRPRPFVYPRP, the “shrunken log2 fold change” value was -0.413.

Consider RRIRRRPPRLPRPRPRPGSDPRP, for which the “shrunken log2 fold change” value worked out at 0.421.

With RRIRNRPPRLPRPRPRPITYPRP, the “shrunken log2 fold change” value is -1.09.

Turning to RRIRARPPRLPRPRPRPFHIPRP, the “shrunken log2 fold change” value is -0.906.

Turning to RRIRQRPPRLPRPRPRPRNLPRP, the “shrunken log2 fold change” value is 0.242.

RRIRWRPPRLPRPRPRPDGAPRP: the “shrunken log2 fold change” value was determined as 0.227.

On to RRIRCRPPRLPRPRPRPKRFPRP, for which the “shrunken log2 fold change” value turned out to be 0.322.

RRIRHRPPRLPRPRPRPPFRPRP: the “shrunken log2 fold change” value stood at 0.141.

Regarding RRIRERPPRLPRPRPRPYHYPRP, the “shrunken log2 fold change” value is -0.102.

As for RRIRMRPPRLPRPRPRPFPVPRP, the “shrunken log2 fold change” value was -0.175.

For RRIRHRPPRLPRPRPRPHWTPRP, the “shrunken log2 fold change” value is -0.00191.

For the sequence RRIRERPPRLPRPRPRPAYWPRP, the “shrunken log2 fold change” value is 0.000956.

Take RRIRRRPPRLPRPRPRPPPIPRP: the “shrunken log2 fold change” value stood at 0.978.

As to RRIRLRPPRLPRPRPRPPLFPRP, the “shrunken log2 fold change” value is 0.412.

As for RRIRFRPPRLPRPRPRPKWEPRP, the “shrunken log2 fold change” value worked out at 0.223.

Regarding RRIRLRPPRLPRPRPRPYVNPRP, the “shrunken log2 fold change” value was -0.23.

For RRIRRRPPRLPRPRPRPFHWPRP, the “shrunken log2 fold change” value was -0.111.

Take RRIRLRPPRLPRPRPRPCENPRP: the “shrunken log2 fold change” value stood at 0.00489.

As for RRIRKRPPRLPRPRPRPKIAPRP, the “shrunken log2 fold change” value came out at 0.35.

For RRIRIRPPRLPRPRPRPCLHPRP, the “shrunken log2 fold change” value is -0.174.

Consider RRIRQRPPRLPRPRPRPFDTPRP, for which the “shrunken log2 fold change” value was -0.144.

On to RRIRQRPPRLPRPRPRPKQNPRP, for which the “shrunken log2 fold change” value is -0.0189.

In the case of RRIRARPPRLPRPRPRPTMPPRP, the “shrunken log2 fold change” value was determined as 0.364.

The values above are taken from the supplement of paper PMC9112550, “Optimization of the antimicrobial peptide Bac7 by deep mutational scanning” (BMC Biology, 2022).
